Results from US20220403048A1, “BINDING MOLECULES TO ARGINASE II [ARG2]” (Cancer Research Technology Limited, priority 2019, published 2022).
Where a chain is given by its changes, count along the chain named.

T1: ARG2 from CCM of LNCaP, A673 and A2780-Cis (Homo sapiens, UniProt P78540)
T1 construct: ARG2 is released into the CCM from LNCaP, A673 and A2780-Cis cell lines; endogenous in cells; host or cells: cell conditioned medium of cancer cell lines (LNCaP, A673, A2780-Cis and others)
T1 sequence (P78540 23-354): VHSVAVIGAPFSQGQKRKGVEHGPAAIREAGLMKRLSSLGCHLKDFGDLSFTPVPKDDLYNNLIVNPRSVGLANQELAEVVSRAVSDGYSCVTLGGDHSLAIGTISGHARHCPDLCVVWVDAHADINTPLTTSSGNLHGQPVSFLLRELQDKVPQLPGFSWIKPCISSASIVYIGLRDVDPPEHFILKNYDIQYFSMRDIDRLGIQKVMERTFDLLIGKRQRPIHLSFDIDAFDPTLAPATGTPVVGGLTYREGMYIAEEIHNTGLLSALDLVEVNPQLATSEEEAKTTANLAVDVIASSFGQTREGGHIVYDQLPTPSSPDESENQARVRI

B1: C0021061: anti-ARG2 antibody, first generation lead, VH SEQ ID NO: 62, VL SEQ ID NO: 67 (antibody, listed as Homo sapiens, V domains shown)
VH: EVQLLESGGGLVQPGGSLRLSCAASGFTFSSYAMSWVRQAPGKGLEWVSAKPTDAGSTYYADSVKGRFTISRDNSKNTLYLQMNSLRAEDTAVYYCARLRADLGLYMDLWGRGTLVTVSS
VL: QSVLTQPPSVSAAPGQKVTISCSGSSSNIGNHYVSWYQQLPGTAPKLLIYNTVYPKSGIPDRFSGSKSGTSATLGITGLQTGDEADYYCGTWDSSLSALVFGGGTKLTVL
modifications: C0021061
B2: C0021158: anti-ARG2 antibody, second generation lead, VH SEQ ID NO: 272, VL SEQ ID NO: 277 (antibody, listed as Homo sapiens, V domains shown)
VH: EVQLLESGGGLVQPGGSLRLSCAASGFTFRYEVAAWVRQAPGKGLEWVSAISGPIPKGYYADSVKGRFTISRDNSKNTLYLQMNSLRAEDTAVYYCARLRADLGLYMDLWGRGTLVTVPS
VL: QSVLTQPPSVSAAPGQKVTISCSGSSSNIGNHYVSWYQQLPGTAPKLLIYDNSERTAGVPDRFSGSKSGTSATLGITGLQTGDEADYYCGTWDELTSNLVFGGGTKLTVL
modifications: C0021158
B3: C0021065: anti-ARG2 antibody, VH SEQ ID NO: 72, VL SEQ ID NO: 77 (antibody, listed as Homo sapiens, V domains shown)
VH: EVQLLESGGGLVQPGGSLRLSCAASGFTFSSYAMSWVRQAPGKGPEWVSAISGFSPYYADSVKGRFTISRDNSRNTLYLQMNSLRAEDTAVYYCARLRADLGLYMDLWGRGTLVTVSS
VL: B1 VL with N51D, V53D, Y54H, P55M, K56A
modifications: C0021065
B4: C0021092: anti-ARG2 antibody, VH SEQ ID NO: 92, VL SEQ ID NO: 97 (antibody, listed as Homo sapiens, V domains shown)
VH: B1 VH with S31R, K51H, P52T, T53H, D54S, A55P
VL: B1 VL with T52S, Y54A, P55R, K56P
modifications: C0021092
B5: C0021133: anti-ARG2 antibody, VH SEQ ID NO: 192, VL SEQ ID NO: 197 (antibody, listed as Homo sapiens, V domains shown)
VH: B2 VH with E32D, V33H, A34H, A35V, P54S, I55G, P56G, K57S, G58T, P119S
VL: B2 VL with I20V, N52T, S53T, E54V, R55L, T56S, A57S, V59I
modifications: C0021133
B6: C0021139: anti-ARG2 antibody, VH SEQ ID NO: 212, VL SEQ ID NO: 217 (antibody, listed as Homo sapiens, V domains shown)
VH: EVQLLESGGGLVQPGGSLRLSCAASGFTFQYDYQVWVRQAPGKGLEWVSAISGSGGSTYYADSVKGRFTISRDNSKNTLYLQMNSLRAEDTAVYYCARLRADLGLYMDLWGRGTLVTVSS
VL: B2 VL with A57S, V59I
modifications: C0021139
B7: C0021022: anti-ARG2 antibody, VH SEQ ID NO: 42, VL SEQ ID NO: 47 (antibody, listed as Homo sapiens, V domains shown)
VH: B3 VH with R74K
VL: B1 VL with N51D, T52N, V53S, Y54E, P55R, K56P
modifications: C0021022
B8: C0021158 IgG: anti-ARG2 antibody, VH SEQ ID NO: 282, VL SEQ ID NO: 287; IgG and Fab versions carry these sequences (antibody, listed as Homo sapiens, V domains shown)
VH: B2 VH with P119S
VL: B2 VL
modifications: C0021158 IgG
B9: C0021181: anti-ARG2 antibody, VH SEQ ID NO: 342, VL SEQ ID NO: 347 (antibody, listed as Homo sapiens, V domains shown)
VH: B6 VH with Q13R, G26E, Q30R, Q34H, G66S
VL: B2 VL with T19A, I20V, N31S, A57S, V59I, K106R
modifications: C0021181
B10: C0021180: anti-ARG2 antibody, VH SEQ ID NO: 332, VL SEQ ID NO: 337 (antibody, listed as Homo sapiens, V domains shown)
VH: B2 VH with P119S
VL: QSVLTQPPTVSAAPGRKVTISCSGSSSNIGDHHVSWYQQLPGAAPKLLIYDTDHMASGIPDRFSGSRSGTSATLGITGLQTGDEADYYCGTWDSSLSALVFGGGTKLTVL
modifications: C0021180
B11: C0021177: anti-ARG2 antibody, VH SEQ ID NO: 322, VL SEQ ID NO: 327 (antibody, listed as Homo sapiens, V domains shown)
VH: B2 VH with I55A, P119S
VL: B2 VL with V3E, S9T, V10A, N52T, S53T, E54V, R55L, T56S, A57S, V59I
modifications: C0021177

These molecules were tested against T1, ARG2 from CCM of LNCaP, A673 and A2780-Cis (assay: ELISA binding to ARG2 from CCM of cancer cell lines). Conditions: biotinylated IgG at 10 μg/ml as detection antibody, FIG. 18.
Text: In this experiment the presence of ARG2 in CCM samples was validated using commercial ARG2 ELISA kit (Cloud-Clone Corp., cat. SED796Hu). Additionally, the protocol was modified to include 1st generation IgG C0021061 and 2nd generation IgG C0021158 as detection antibodies to confirm binding of ARG2 IgG's to ARG2 expressed from cancer cell lines (FIG. 18).
The commercial kit is a 96-well plate pre-coated with anti-ARG2, which uses sandwich ELISA to quantify ARG2 in samples. Standards, biotinylated detection antibody, detection, substrate, and stop reagents are all provided in the kit. […] 100 μl of diluted CCM/media control was used for each well of kit and ELISA was performed following manufacturer's protocol. Each sample was run in duplicate. In parallel, CCM/media control samples were also included to test for binding of C0021061 and C0021158 to ARG2 in CCM samples. […] At the end of the assay, absorbance at 450 nm was read out on PheraStar (BMG). The absorbance values of standards were used to make standard curve and was used to interpolate ARG2 levels in CCM samples (where PAD detection antibody supplied with the kit was used). Similarly, absorbance reads from wells that received C0021061 and C0021158 were used to […] and 2nd generation ARG2 IgGs (C0021061 and C0021158 respectively) bind to ARG2 in CCM samples (FIG. 18).

binding to ARG2 from CCM of LNCaP, A673 and A2780-Cis (ELISA)	Molecule
binding	B1
binding	B2

These molecules were tested on cynomolgus ARG2 (assay: Bio-Layer Interferometry (OctetRED) binding kinetics, cynomolgus ARG2). Conditions: Fab as analyte; cyno ARG2 ligand; affinity-matured antibodies.
Sequence of cynomolgus ARG2 (as listed by the source): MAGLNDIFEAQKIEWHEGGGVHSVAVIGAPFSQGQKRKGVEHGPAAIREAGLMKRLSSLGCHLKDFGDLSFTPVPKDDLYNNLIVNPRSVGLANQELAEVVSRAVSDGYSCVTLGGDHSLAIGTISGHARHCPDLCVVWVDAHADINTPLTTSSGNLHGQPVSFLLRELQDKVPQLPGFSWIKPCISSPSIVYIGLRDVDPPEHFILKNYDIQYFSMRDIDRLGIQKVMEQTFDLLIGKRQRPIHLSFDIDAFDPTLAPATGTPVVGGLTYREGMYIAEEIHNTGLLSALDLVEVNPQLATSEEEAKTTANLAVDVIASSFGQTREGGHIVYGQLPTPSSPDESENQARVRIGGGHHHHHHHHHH
Text: The OctetRED (Pall ForteBio) instrument was used to assess the kinetic parameters of the interactions between C0020187 and recombinantly produced human ARG2, cynomolgus ARG2 and human ARG1. The Octet biosensor uses an optical analytical technique that analyses the interference pattern of white light reflected from two surfaces: a layer of immobilised protein on the sensor tip, and an internal reference layer. Any changes in binding at the biosensor tip result in a shift in interference pattern, which can be measured in real time. Molecules associating with or dissociating from ligands at the biosensor tip shift the interference pattern and generate a response on the Octet system which is recorded by the acquisition software.
Typically, a defined concentration of the analyte species is brought into contact with the coupled ligand and any binding is detected as an increased in signal (association phase). This is followed by a period of buffer rinse, during which dissociation of the analyte species from the surface immobilised ligand can be observed as a decrease in signal (dissociation phase). Repetition of this with a range of analyte concentrations provides data for the analysis of binding kinetics.
An Octet Kinetics Buffer (PBS containing 0.01% BSA and 0.002% Tween20) is typically used as the diluent buffer for the analyte samples and as the flow buffer during the dissociation phase. The experimental data is recorded over time as shift in interference pattern (nm) over time, which is directly proportional to the optical thickness at the biosensor tip, which in turn is an approximate measure of the mass of analyte bound. The proprietary Octet Data Analysis software package can then be used to process data and fit binding models to the data sets. Returned association (ka, M^−1 s^−1) and dissociation (kd, s^−1) rate constants allow calculation of dissociation (KD, M) affinity constants.
The affinity of binding between the Fab of C0020187 and human ARG2, cynomolgus ARG2 and human ARG1 was estimated using assays in which the biotinylated ARG antigen was captured on a streptavidin sensor tip. A fresh sensor tip was used for each measurement and no regeneration was used. A series of dilutions of the C0020187 Fab (3.25-240 nM) were individually placed in contact with the ligand surface for a sufficient amount of time to observe sensorgrams that could be fitted to an appropriate binding model with confidence (typically 5 minutes), followed by an appropriate length of dissociation time (typically 10 minutes). Blank reference (0 nM Fab) data were subtracted from each dataset to reduce the impact of any buffer artefacts or non-specific binding effects. An appropriate binding model was then fitted simultaneously to the data from each analyte titration using the Octet Evaluation software.
Example results for C0020187 are shown in Table 9, showing the association rate constants (ka), dissociation rate constants (kd) and dissociation constants (KD). These parameters were derived from a 1:1 binding fit to the data.
The affinities of the affinity-matured antibodies to human ARG2 were measured on the OctetRED system as described in section 1.15 using the streptavidin capture method. Typically, an analyte titration range of 1.8 to 120 nM was used.
The affinities of some of these antibodies to cynomolgus ARG2 were determined using the same assay, and the derived kinetic parameters are shown in Table 21.

ka	kd	Molecule
310000 M⁻¹ s⁻¹	0.000296 s⁻¹	B1
617000 M⁻¹ s⁻¹	0.000782 s⁻¹	B3
354000 M⁻¹ s⁻¹	0.000726 s⁻¹	B4
328000 M⁻¹ s⁻¹	0.000549 s⁻¹	B5
275000 M⁻¹ s⁻¹	0.000724 s⁻¹	B6
706000 M⁻¹ s⁻¹	0.00117 s⁻¹	B7

Same assay, conditions: second-generation Fab; cyno ARG2 ligand; same extended assay

ka	kd	Molecule
429000 M⁻¹ s⁻¹	4.64e-05 s⁻¹	B8
257000 M⁻¹ s⁻¹	4.43e-05 s⁻¹	B9
381000 M⁻¹ s⁻¹	0.000135 s⁻¹	B10
414000 M⁻¹ s⁻¹	3.12e-05 s⁻¹	B11
